Experimental findings from a protein production outcome set (Wang et al. 2014) are described below.

The nature of this data set: label from the status in PepcDB records.
Consider “MTQDELLVLIEQAATEGWRELDLSGQELTELPGEIGKLQQLESLILGKQVGGYEKVGYRIFQKALGNNLKTLPIELLSLPNLRKLDISGNPLEGIPDVVMQILHLEELILIRVQLTEIPEALAKLTNLTQLILSDNQITEIPEALAKLTNLTQLNLSYNQITEIPEALAKLTNLTQLNLSYNQITEIPEALAKLTNLTQLNLRGNQRTEIPEALAKLTNLTRLNLSYNQRTEIPEALAKLTNLTQLILSDNQIKEIPETIAKLTNLTHLILSGNQIKEIPETIAKLTNLTQLGLDGNQIKEIPEAIAKLTNLTQLGLDGNQIKEIPEAITKLTNLTHLILSGNQIKEIPETIAKLTNLTQLALSSNQITEIPEVLAQLTNLTQLFLSSNQITQIPEALAPLTNLTTLHLRVNQITQIPEAIESLPKLELLDLRGNPLPISPEILGSVYQVGSVEEIFNYLRLLRSGEVRPLNEAKLLLVGQGSVGKTSLIERLIHNKYDRNQPQTDGLKVETWNVQVNSKDIRLNVWDFGGQEIYHATHQFFLTKRSLYLLVCNCRTSEEENRIEYWLKLIESFGGQSPVIIVGNKKDEQPLDINRKALREKYPNIQAIIETSCQDNIGIDELRTAILQQVGNLKEVYDLLPLSWFEVKQQLESMSQDFITYSSYIGICYENKIPEEHNQEQLIDLLHRLGLVLNFREHPILRDTNVLKPNWVTEGIYALLSDENLKTKSKGIFTPADLTRVLNPERYPTKRHGYLIELMKEFELGFELACYPPQFLIAGLLPKDQPDATELEGETLEFQYHYKVLPESIISRFIVNTHERIHNQIYWRSGVMLQYQQHNEIYNIARIKADPEDKKIFIAISGRKETRRSFLAILRDVFQKIHKSLANLEITEWVPVPGYPNHPPLDYQELLGLETMGILEYPIGKLKININIRQLLDGYESLESRRKLQKGDHDLDDRTAYEDILDIAKLAVSRPIITKAEAKAVSENPQFTNNLQGANIANFANEVKDNASQQASNFNQTSGANIAEIMQLINNLRQTVAQFPPEIRDDIIIDIDDVEVEIQKPEKERNTPKLKKRLAALLTAASVAAAPIASVVDFTNNVMELGSKLGIELIQPSP”, for which the protein production result is recorded as “failed”. For the sequence “MTQDEQICSLALTRIPGLGPTGAFRLVSSLGSATRVFEHRKELSQLVPGVSEKIITALNNSEAFRRAEQELTFCEKNHIRCLTLNDEGYPGRLRECDDAPLALFYRGNADLNALHVINMVGTRHATPYGQDICTRFLADLSVLCPNALIVSGLAYGIDIHAHRAALQNHFKTIGVLAHGLDRIYPAEHRKTAVSMLEQGGLLTEFTSGTNPDRQNFVKRNRIVAGMSDATVVIESAAKGGALITAELAESYHRDCFAFPGRCNDEYSIGCNNLIRKNQAVLITSAEDLVKAMGWESSPKTEKTVQRELFPDLSEEEERIVKRLGKMSEGLQINTLVIDTNIPVNRMSALLFELEMKGVIRALAGGVYRLIM”, the protein production entry is given as “not failed”.

Regarding “MTQDGTNILILGSDQRVTQGSTDARTDTIMVVNVGNHAKKIKMVSFMRDTLINIPGYSYNDNSYDLKLNSAFNLGEQEDHHGAEYVRRALKHNFDIDIKYYVMVDFETFAEAIDTLFPNGVKIDAKFATVGGVAVDSVEVPDDLRMKNGVVPNQTIEVGEQRMDGRTLLNYARFRKDDEGDFGRTVRQQQVMSAVMSQIKDPTKLFTGSAAIGKIYALTSTNVSFPFVVKNGVSVLGSGKNGVEHVTIPENGDWVDEYDMYGGQALYIDFDKYQKTLAKLGLRLEHHHHHH”, the protein production entry is listed as “not failed”.

Turning to “MTQHQTLPQTTEGAYHYQVIRRAIELIDQTDQPISLDEIAANMGMSPAHFQRVFSRWVGVLEHHHHHH”, the protein production result is reported as “not failed”. With “MTQKEISIIHPRPSSIVAALYTLRDLNVDVAILHGPPGCSFKHARLLEEDGIHVVTTGLDENGFVFGGHDKLVQVINKSIELFNPKILGVVGTCASMIIGEEMHEAVLEANPDIPVIEVEVHAGYHNNTKGVIFALESALDAGIIDHKEFERQEYLLQKATEVEKKFGAASKEYLAPSRGDVKYKVAKRLVELLKEGKKGLVIMNAKKETGYMFADITLAVNEVAEALGKKENLVNMANIDPELGLPRVRQHAEYIMRDFKAHGVEIHEIIGGMDEYPVAGEKVSELIKEKYSDYDFAVITGVPHAVPMENIGHMELISITNGPRQVLPLKEMGHEHVMVEIDLHPKTLGVSQIVESEFGATLREVAKEA” the entry was “failed”; with “MTQKFGLSAALTTPFKTDGTVDIDAMIAHARRCLSNGCDSVTLFGTTGEGCSVGSRERQAILSSFIAAGIAPSRIVTGVLVDSIEDAADQSAEALNAGARNILLAPPSYFKNVSDDGLFAWFSAVFSKIGKDARDILVYNIPSVTMVTLSVELVGRLKAAFPGIVTGVKDSSGNWSHTERLLKEHGDLAILIGDERDLARGVRLGGQGAISGVANFLTQEVRAMAVDGKDDPRIVDLVVELLKFPVTPAVKVLVSHTTGETIWSDVRAPLVAISPEDRRQIEGAFDALFRRQAA”, “not failed”; with “MTQKTGALIFDETADRYDIRFDLNDYYGGLHCGDCLEVFVRGKWKPTRMEYGDNWYLVGVRASDLNGLRVRILEHHHHHH”, “failed”. Regarding “MTQPEETPVSFIPSNFIEKGKILNGTFDIRNAIESIVLSLAIGIPVFHLPLSLTARIIILCMTALPAAMVALIGIGGESITAFLMNALRFVVNRRVIWRSDSLPEGKPRRKPRFKEPKTKKHRKAEKMAEPSKVMASAPPQSEPDAPAPPKSKKKEHRQFDTSTKRGIKKQAKEDIRYLKWEQKEASRQKKEAAKQIKIQKKTEARRRKEEEKRAVSEKRAAKKEQKKKVVSKEDTSSATSKPVSRKKRKKDQTLEDYLPVEKIANGIVYTTDGRYVKILEIEPINFLLRSAREQQGIIYSFISYLKISPVKLQIKMISKKADINKHLEQSQLELERETDPHCQELQRDYIQFVQNLSSREAVSRRFFLIFEYEPFNANRKEEEREILAALETASQTAKTFLYQCGNEVVSHDNEDEFTTDVLYTLLNRTLCTEVPLSNRISTVLSAYTKENRMEELDHIRINEFLAPESVDFKHSHYVQINGLYHSYLLVPSDGYKNRVTPGWLSLLVNAGEGIDIDFFLQKQPKDKIQQRLGQQIRINRSKLKDASDTNTDYDDLDSAIRSGYFLKQGLANNEDFYYMNLLITITASTLEELQWRIQEMKKLLISQDMNLHSCYFLQEQGFLSSLPLANLDKKLFKLSKRNVLTSGAASCYPFVSYSICDDNGILFGVNKHNNSLVIADIFDSRQYKNSNICILGCSGAGKTFTMQTMALRMRRKGIQVFIIAPLKGHEFYRAARNVGGEFIQISPASKNCINIMEIRKVDNSVNELLDGPTLDASALAGKIQRLHIFFSLLIPDMSHEEKQLLDEALIKTYARKGITHKNESLTDPQHPEQYKKMPILEDVYNVLLESEDTKRLAHILNRLVHGSASSFNQQTNVDLTNKYTVLDISELTGSSDLLTVGMFVALDYVWDKAKENRTEEKAIFVDEVWQLIGASSNRLAAEFVLEIAKIIRAYSGAGIFATQDLNDFFALDDGKYGKGIINNCKTKIILNMEDEEAQRVKTILHLSETEVMNITHFQRGNGLISTNNNNITVEFKASNLEKELITTERQELLEILAKQKKQAV”, the protein production entry is given as “failed”.

For the sequence “MTQQDFRTKVDNTVFGVRATALIVQNHKLLVTKDKGKYYTIGGAIQVNESTEDAVVREVKEELGVKAQAGQLAFVVENRFEVDGVSYHNIEFHYLVDLLEDAPLTMQEDEKRQPCEWIDLDKLQNIQLVPVFLKTALPDWEGQLRHIHLEE”, the protein production entry is listed as “not failed”. With “MTQSQTNDGAGAGAVTTVESVPPQPQSQPQPQPQQQSNEMVLHTGSLSFSSHMSREDEEMTRSALSAFRAKEDEIEKRRMEVRERIQAQLGRVEQETKRLSTIREELESMADPRIWPSELESMADPMRKEVSVVRKKIDSVNKELKPLGSTVQKKAEQNSIFGNEMKQEREYKEALDTFNEKNREKVQLITKLMEMEQLVGESEKLRMIKLEELSKSIETV” the entry was “not failed”. With “MTRADCRSRLMEVATELFAQKGFYGVSIRELAQAAGASISMISYHFGGKEGLYAAVLQEQFACFGQLDDIRGQAGDPLAVMTAYLRWTIQRHRNNPQLLRFYTSELTNPTPCFAAIVSPAIASVIRLLAESIEAGMTRGLFRRDLHAVNSALALAGMVNYFFLSTLATEGLTSHSPDQDEELIRQYVAIFTRGIMADGGAAPA” the entry was “not failed”. With “MTRAINDPGNEDPGSLLETDADALLGGAAAQAPEERCRLAAQACIRACERYLALCTESSREQRQHAGDCADLCRLAALLLERRSPWAPAACELAARYALACAERCDGDEPLERECAGACRRFVEACRPLLPA” the entry was “not failed”.
